Measured values taken from publication PMC2631452, “Redox biology of Mycobacterium tuberculosis H37Rv: protein-protein interaction between GlgB and WhiB1 involves exchange of thiol-disulfide” (BMC Biochemistry, 2009).

Target: T1, purified, oxidized GlgB pre-alkylated with iodoacetamide (Mycobacterium tuberculosis H37Rv, UniProt P9WN45 1-731, free cysteines C95 and C658 alkylated with iodoacetamide; C193 and C617 in an intra-molecular disulfide bond (oxidized))
T1 construct: GlgB (Rv1326c), Mycobacterium tuberculosis; recombinant, about 85 kDa on SDS-PAGE; also called pre-alkylated oxidized GlgB; pre-alkylated GlgB
T1 sequence: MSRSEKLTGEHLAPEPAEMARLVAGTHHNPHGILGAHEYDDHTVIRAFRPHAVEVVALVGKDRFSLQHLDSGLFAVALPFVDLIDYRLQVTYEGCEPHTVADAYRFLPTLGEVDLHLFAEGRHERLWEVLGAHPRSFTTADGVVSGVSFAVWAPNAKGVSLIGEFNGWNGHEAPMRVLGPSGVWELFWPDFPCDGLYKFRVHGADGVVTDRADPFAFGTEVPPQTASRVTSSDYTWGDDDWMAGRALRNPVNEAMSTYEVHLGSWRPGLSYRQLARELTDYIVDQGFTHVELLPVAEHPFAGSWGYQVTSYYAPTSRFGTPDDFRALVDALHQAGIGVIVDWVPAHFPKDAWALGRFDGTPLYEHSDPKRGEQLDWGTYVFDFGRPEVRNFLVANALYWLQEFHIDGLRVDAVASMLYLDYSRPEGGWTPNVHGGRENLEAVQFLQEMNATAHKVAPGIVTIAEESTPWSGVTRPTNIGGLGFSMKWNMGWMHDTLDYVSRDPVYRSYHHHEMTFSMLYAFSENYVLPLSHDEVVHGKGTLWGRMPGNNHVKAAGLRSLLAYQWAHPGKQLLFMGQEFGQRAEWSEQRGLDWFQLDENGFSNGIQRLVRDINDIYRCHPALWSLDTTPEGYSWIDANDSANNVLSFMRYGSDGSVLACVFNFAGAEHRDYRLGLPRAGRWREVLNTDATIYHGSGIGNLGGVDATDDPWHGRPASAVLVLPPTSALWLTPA
Assay: […]; 50 mM Tris.HCl pH 8.0, 100 mM NaCl, 0.05% Triton X-100, 2 mM EDTA, 10 mM MgCl2, 25°C; […]
Conditions: both partners purified

B1: WhiB1C40S (natural protein)
chain: MDWRHKAVCRDEDPELFFPVGNSGPALAQIADAKLVCNRSPVTTECLSWALNTGQDSGVWGGMSEDERRALKRRNARTKARTGV
notes: also called C40S mutant of WhiB1
B1: binds.
